According to a protein production outcome set (Wang et al. 2014):

Test: label from the status in PepcDB records

Row | Sequence | protein production
1 | MSSTLRFHVLGRGAALPRAVAPYFVLRTDNWDDFGHRVQFHLILIVSGAPEKRIGSLKVLQRTSDKGEAMMVATDTELPSKFVELDDTFVSLGQDDDFYKKLHEALGDRAGEVLDALRDIAWRPAFASDFEPTPAFRNAMMRENGAQRARRFGRAWALGEQITERPAFDYVGTIEGADIKVEGEFDFSATDPVPGRIVGLIGRNAVGKTRYLASLGSDLAQISRRSAEALEAREARFPGGRPLFTRIIAISYSAFDRFKRPPMDSSSSYVYCGIRNDRGGLSRSALIDRYRLNQVRIRERGEQRSWMRHMKTILGDQGAQLTASLEEEIRSDSTDDSALSSLSSGQSILAHFVTALLAWIQPNSLVLFDEPETHLHPNAVASLFLVLSQVLQEFDSYAVIATHSPVVIQEIPAKRVLVFRREGNVTIAEPLLLESFGESVTELTRHVFETGEVESLYKRTLRELAAEDTVEDVLARFELGLSLSAQAYLLAQYSKKAGGRTLEHHHHHH | failed
2 | MSLTIKLIAIDIDGTLLNEKNELAQETIDAVQAAKAQGIKVVLCTGRPLTGVQPYLDAMGISGDDQYAITFNGSVAQTISGKVLTNHSLTYEDYIDLEAWARKVRAHFQIETPDYIYTANKDISAYTIAESYLVRMLIRYREVSETPRDLTISKAMFVDYPQVIEQVKANMPQDFKDRFSVVQSAPYFIEVMNRRASKGGTLSELVDQLGLTADDVMTLGDQGNDLTMIKYAGLGVAMGNAIDEVKEAAQAVTLTNAENGVAAAIRKYALNEGHHHHHH | not failed
3 | MSAPAPRSPAGGHEARATARALTLLAIGAGFGFLWLARDLLVPTALGVTLALSVHPVVAALQRRRVSRTVASVAGTLLAVAVLVGIGYVLWGRIAAFADELPGYEGRLREAAAGIRRHAAHLQAQSEQLVQAPRRPGEVKVQEGVPWGSLLVGTAQGALTFAGQATVVVFVLYFTLAEGPRFRTKLLAWADRRPRGRARVLAALEELHRDVEQYMLNRVALNAALGVVTWAVYALYGLEHAAIWGITTALLHFIPYVGPALGLFLPAAMALLQYGTAKDVALVTAIYLVLVNVQGNVVDPLFLGKQLRLSPLVVFLGSLFWFWLWGPVGLFLAVPLLSTVRIVCRHLPRYRVVASLLAE | failed
4 | LEEHEQFNHKIVASAPVGISILRIRDGMIILSNELAHNYFRLLSHSDKQNILSIIAEKSSNIVDVVTNNHNHLQISFVNSRYQNEDVAICVLVDISARVKMERSLQNMATAAEQANQAKSMFLATVSHELRTPLYGIIGNL | failed
5 | MLTLPAPEPIAHMEVTSYRAGVQGGSGLWRGQAVYVKTLVSDDPDRVAMFHHEGAVAARLSHPLVTPLLAHTPNQLIFPLLRGGTLRDLVRCGPLDADAATQVTWGVLQAVSHLHGRGVTHHDLKPENVLLIGGQSQVEAVRLIDFGMSHAAGLPLDIHSGTRMGTPQFMAPEQFQGVRGDPRSDLYSVGVLLFDCLAGHPPYADALGWLVGISEERAAAPGPSALHPLMLRAIQRDRDSRPQSAAEMLAALADARQQLGLPELEHIAPEGQTAGENA | failed
6 | MSQLPAWPRITRESTAMYHLRVPQTEEELERYYQFRWEMLRKPLHQPKESERDGWDALAHHQIVVDEEGNLVAVGRLYINADNEASIRFMAVHPSVQDKGLGTLMAMTLESVARQEGVKRVTCSAREDAVEFFAKLGFVNQGEITTPTTTPIRHFLMIKPVASLDDILHRGDWCGQLQQAWYEHIPLSEKMGVRIQQYTGQKFITTMPETGNQNPHHTVFAGSLFSLATLTGWGLIWLMLRERHLGGTIILADAHIRYSKPISGKPNAVADLGSLSGDLDRLARGKKARVQLQVELLGGETAGAIFEGIYIVLPAKPFGPYEEGGNEEE | failed
7 | MASRGRRPEHGGPPELFYDETEARKYVRNSRMIDIQTRMAGRALELLYLPENKPCYLLDIGCGTGLSGSYLSDEGHYWVGLDISPAMLDEAVDREIEGDLLLGDMGQGIPFKPGTFDGCISISAVQWLCNANKKSENPAKRLYCFFASLFSVLVRGSRAVLQLYPENSEQLELITTQATKAGFSGGMVVDYPNSAKAKKFYLCLFSGPSTFIPEGLSENQDEVEPRESVFTNERFPLRMSRRGMVRKSRAWVLEKKERHRRQGREVRPDTQYTGRKRKPRF | failed
8 | MTLHLPGADGTLRAYEPRTEPLPTLRATSGSAFSSRTVFSAAHVVADPYADTTPDGPAAVDWDATLAFRRHLWSHGLGVAEAMDTAQRGMGLDWPTAAELIRRSAAEARATGGRIACGVGTDQLTATAATLADVRSAYEEQLAVVEESGAQAILMASRALAATAKGPDDYLEVYGHLLRQAAEPVILHWLGPMFDPALEGYWGSSDLDAATDTFLEVIAAHPDKVDGIKVSLLDAQREIDLRRRLPRGVRCYTGDDFNYPELIAGDEQGFSHALLGIFDPLGPLAAEAVRVLDTGDTDGFRALLDPTVELSRHLFRAPTRYYKTGVVFLAWLAGHQSHFTMVGGLQSARSLPHLARAYELADGLGLFPDPKPAEERMRNLLALYGVNA | failed
9 | MNKLDGIPIPKTYGPLGNLPLLDKNRVSQSLWKIADEMGPIFQFKFADAIGVFVSSHELVKEVSEESRFDKNMGKGLLKVREFSGDGLFTSWTEEPNWRKAHNILLPSFSQKAMKGYHPMMQDIAVQLIQKWSRLNQDESIDVPDDMTRLTLDTIGLCGFNYRFNSFYREGQHPFIESMVRGLSEAMRQTKRFPLQDKLMIQTKRRFNSDVESMFSLVDRIIADRKQAESESGNDLLSLMLHAKDPETGEKLDDENIRYQIITFLIAGHETTSGLLSFAIYLLLKHPDKLKKAYEEADRVLTDPVPSYKQVQQLKYIRMILNESIRLWPTAPAFSLYAKEETVIGGKYLIPKGQSVTVLIPKLHRDQSVWGEDAEAFRPERFEQMDSIPAHAYKPFGNGQRACIGMQFALHEATLVLGMILQYFDLEDHANYQLKIKESLTLKPDGFTIRVRPRKKEAMTAMPGAQPEENGRQEERPSAPAAENTHGTPLLVLYGSNLGTAEEIAKELAEEAREQGFHSRTAELDQYAGAIPAEGAVIIVTASYNGNPPDCAKEFVNWLEHDQTDDLRGVKYAVFGCGNRSWASTYQRIPRLIDSVLEKKGAQRLHKLGEGDAGDDFEGQFESWKYDLWPLLRTEFSLAEPEPNQTETDRQALSVEFVNAPAASPLAKAYQVFTAKISANRELQCEKSGRSTRHIEISLPEGAAYQEGDHLGVLPQNSEVLIGRVFQRFGLNGNEQILISGRNQASHLPLERPVHVKDLFQHCVELQEPATRAQIRELAAHTVCPPHQRELEDLLKDDVYKDQVLNKRLTMLDLLEQYPACELPFARFLALLPPLKPRYYSISSSPQLNPRQTSITVSVVSGPALSGRGHYKGVASNYLAGLEPGDAISCFIREPQSGFRLPEDPETPVIMVGPGTGIAPYRGFLQARRIQRDAGVKLGEAHLYFGCRRPNEDFLYRDELEQAEKDGIVHLHTAFSRLEGRPKTYVQDLLREDAALLIHLLNEGGRLYVCGDGSRMAPAVEQALCEAYRIVQGASREESQSWLSALLEEGRYAKDVWDGGVSQHNVKADCIART | failed
10 | MVKSKVKKVEKGKEGEEKRSTYVLLKKVLIPILVFGFAIYAFYLRHLTAGKYFPDPDTFYHFEIYKLVLKEGLPRYYPMSDAPFGSLIGEPLGLYLLPAAFYKVVSLFGYNELQAFLLWPPFVGFLGVIAVYLLGRKVLNEWTGLWGAVVLTVSTANFSRTFSGNARGDGPFMALFIFASVAMLYYLKESNKTRKIIYGTLFVLLTVISLGAWNGSPFGLMVLLGFASLQTIILFIFGKLEELKKFVKEFYPAYLAILAFGYALTFPGIVKIGGFIRFAFEVFLGLIFLLVIMLYGGRYLNYSDKKHRFLVVTIIVLLGFGGAYAYVGPKLFRLMGGAYQSTQVYETVQELAKTTIGDVKAYYGVESGNGLIFFLSIPGLLILLTKYLYDLFKKAKSDNETLFALVFYTMSLYLLYLAVRFLFLASYAVALFFGIFIGFSMDVIEKMKENIGIKAALGIVLSLMILVIPFVHAPVLARSARALKNTEIEVTGWEQALKWLRSNTSKYATATSWWDYGYWIESSLLGNRRASADGGHARDRDHILALFLARDGNISEVDFESWELNYFIIYLNDWAKFNAISYLGGAITRKEYNGDENGRGRVTTILLTQAAGNVYVNPYARIVIKVIQQNKTRRIAVNIGQLECSPILSVAFPGNIKIKGSGRCSDGSPFPYVVYLTPSLGVLAYYKVATSNFVKLAFGIPTSSYSEFAEKLFSNFIPVYQYGSVIVYEFRPFAIYKIEDFINGTWREVGKLSPGKHTLRLYISAFGRDIKNATLYVYALNGTKIIKRIKVGEIKYMNHLEEYPIIVNVTLPTAQKYRFILAQKGPVGVLTGPVRVNGKITNPAYIMREGESGRLELKVGVDKEYTADLYLRATFIYLVRKGGKSNEDYDASFEPHMDTFFITKLKEGIKLRPGENEIVVNAEMPKNAISSYKEKLEKEHGDKLIIRGIRVEPVFIVEKEYTMIEVSASAPHHSSE | failed
